B1: OR4K15 (parent)
chain: GUUAACGGUCAUAGGCCAUGGAAACUAGGAGCACCAUUUCGCUGCCAGUGAAGAAAUGAACAAAGAAAAUCUGGGCCAGGCAGGCAUCAAAAGAAAUAGUCUUGCGCUCAACCAGAAAGUCUGUAAUCAUUUUAAGGGUA

Variants of: B1
Assay: self-cleavage, relative activity (ratio to wild type); higher = more cleavage; in vitro, sequencing; the parent is a self-cleaving ribozyme

Compared with U43G U49C, U43A A96G is higher in self-cleavage: 2.01 for the first, 2.07 for the second.

Going from U43A A96U to C45U A56C, the self-cleavage falls from 1.72 to 0.67.

First: G41A A135G
Second: G41C A64U
The self-cleavage of the first is lower: 0.99 for the first, 2.26 for the second.

Compared with U43A A68G, G41A U127A is higher in self-cleavage: 1.25 for the first, 2.15 for the second.

Compared with G41A U127C, U43A U87A is higher in self-cleavage: 1.22 for the first, 1.94 for the second.

Going from U43A U87C to U43A A60G, the self-cleavage falls from 1.55 to 1.52.

Compared with U39C U124C, U43C G79U is lower in self-cleavage: 1.25 for the first, 0.12 for the second.

First: U43C G93A
Second: U43A U132C
The self-cleavage of the first is higher: 2.44 for the first, 1.86 for the second.

First: U43A U132A
Second: U43C A95U
The self-cleavage of the first is higher: 1.41 for the first, 0.49 for the second.

Compared with C40A U124C, C40U U97A is higher in self-cleavage: 0.93 for the first, 1.63 for the second.

Compared with C40U U97C, U43A A95G is lower in self-cleavage: 0.94 for the first, 0.92 for the second.

Compared with C40U U72A, C42U U127C is higher in self-cleavage: 0.34 for the first, 0.99 for the second.

Going from C45G A55G to C42U A60G, the self-cleavage falls from 1.73 to 1.17.

Compared with G41A A66G, C42U G44A is lower in self-cleavage: 1.74 for the first, 1.51 for the second.

Going from G41U A47G to C42U A126G, the self-cleavage falls from 1.2 to 0.91.

Going from U43G A51U to U43G A51G, the self-cleavage rises from 2.16 to 2.35.

Going from U43A A51U to U43A A51G, the self-cleavage rises from 1.28 to 1.64.

First: U39G A47U
Second: U43A U102C
The self-cleavage of the first is lower: 0.98 for the first, 2.2 for the second.

Going from U43A U102A to G44C A78G, the self-cleavage falls from 0.78 to 0.52.

First: G44C U102C
Second: U43C G123A
The self-cleavage of the first is higher: 2.81 for the first, 2.35 for the second.

Compared with U39C U120A, U39C A140G is lower in self-cleavage: 2.52 for the first, 1.57 for the second.

Compared with U39C A140U, C42U A129G is lower in self-cleavage: 1.62 for the first, 1.47 for the second.

Going from U39C U72C to U39C U72A, the self-cleavage rises from 0.27 to 0.32.

Compared with C45U A51G, U43C U87C is lower in self-cleavage: 1.58 for the first, 0.35 for the second.

Going from U43C U87A to U43C A56G, the self-cleavage falls from 1.94 to 1.18.

First: G41U A89G
Second: U39C C101U
The self-cleavage of the first is higher: 2.13 for the first, 0.46 for the second.

First: C42A A91U
Second: C45A A134G
The self-cleavage of the first is lower: 0.86 for the first, 1.72 for the second.

Going from G41C A95G to C40U A116G, the self-cleavage falls from 2.25 to 1.57.

Compared with C40A U108A, C45U A114G is higher in self-cleavage: 0 for the first, 0.75 for the second.

First: C45U A114U
Second: G41A U130C
The self-cleavage of the first is lower: 0.13 for the first, 0.99 for the second.

Going from C45U A68C to U39C U122A, the self-cleavage falls from 1.95 to 1.58.

First: U39C U122C
Second: U39C U122G
The self-cleavage of the first is higher: 1.84 for the first, 1.81 for the second.

First: G44A A134U
Second: C40U U131C
The self-cleavage of the first is lower: 0.73 for the first, 1.93 for the second.

Compared with G41A A94G, U43C A126C is higher in self-cleavage: 1.9 for the first, 1.95 for the second.

Going from U43C A126G to C40A A89G, the self-cleavage rises from 0.73 to 1.44.

First: U43C U70C
Second: U43C U70G
The self-cleavage of the first is lower: 0.83 for the first, 1.28 for the second.

Compared with G44U A52U, U39C G50A is higher in self-cleavage: 0 for the first, 1.2 for the second.

First: U39C A135G
Second: U39C A135U
The self-cleavage of the first is higher: 1.82 for the first, 1.73 for the second.

Compared with C40U A95G, U43C A47G is lower in self-cleavage: 1.96 for the first, 0.98 for the second.

First: G41A A51C
Second: U43C U132A
The self-cleavage of the first is lower: 1.57 for the first, 1.82 for the second.

Going from G41U U130C to U43C U120C, the self-cleavage falls from 1.59 to 0.46.

First: G41C A51C
Second: U43C U100C
The self-cleavage of the first is lower: 0.71 for the first, 2.35 for the second.

Compared with U43A A110G, C40A A67G is higher in self-cleavage: 0.19 for the first, 1.7 for the second.

Compared with U43G A134G, C42G A51G is higher in self-cleavage: 0.89 for the first, 1.47 for the second.

First: C40U A67G
Second: U43C U122A
The self-cleavage of the first is lower: 0.82 for the first, 1.34 for the second.

Going from U43C U122C to G41A A60G, the self-cleavage rises from 0.81 to 1.63.

Compared with U43A U70G, U43A U70C is lower in self-cleavage: 1.12 for the first, 0.98 for the second.

Compared with U43A A98C, U43C A140G is higher in self-cleavage: 1.91 for the first, 1.95 for the second.

Going from C42A A69G to U43C U108A, the self-cleavage falls from 1.88 to 0.02.

First: U43C U108C
Second: C45U A60G
The self-cleavage of the first is lower: 0.02 for the first, 1.29 for the second.

Going from G41A U122C to U43A U120G, the self-cleavage falls from 1.67 to 1.16.

First: U43A U120C
Second: U43A U120A
The self-cleavage of the first is lower: 0.37 for the first, 1.57 for the second.

Going from U39C C121U to C40A G65A, the self-cleavage falls from 2.87 to 1.

Going from G41A U132C to C40A A66G, the self-cleavage falls from 1.79 to 1.69.

Compared with C40A A66U, U43C A118U is lower in self-cleavage: 1.52 for the first, 0.87 for the second.

First: U43C A118C
Second: G41A A92G
The self-cleavage of the first is higher: 1.4 for the first, 0.97 for the second.

Compared with U39G A96U, U39C G104A is lower in self-cleavage: 1.58 for the first, 0.03 for the second.

Going from U39G U132C to U43A A59G, the self-cleavage rises from 0.94 to 1.52.

Compared with U43G A111G, C45U A126G is higher in self-cleavage: 0.03 for the first, 0.97 for the second.

First: C42U A95G
Second: G41U U122C
The self-cleavage of the first is higher: 2.84 for the first, 1.34 for the second.

Going from U39G A89G to G41A, the self-cleavage rises from 1.18 to 1.67.

Going from G41C to G41U, the self-cleavage falls from 1.78 to 1.74.

Compared with C40U U122A, G44U A64G is lower in self-cleavage: 1.3 for the first, 1.19 for the second.

Going from G41A A111G to G44A A95G, the self-cleavage rises from 0.02 to 1.76.

Compared with U39C U132C, U39C U132A is lower in self-cleavage: 1.12 for the first, 0.7 for the second.

Going from G41A A52G to G44A U108C, the self-cleavage falls from 1.07 to 0.01.

First: G41A A140G
Second: C45U A140G
The self-cleavage of the first is higher: 1.89 for the first, 1.42 for the second.

Going from G41C U87C to G44A U97C, the self-cleavage falls from 2.03 to 0.83.

Going from U39G A129G to U43C U97G, the self-cleavage rises from 0.86 to 1.6.

Going from U39G A125G to U43C C71A, the self-cleavage falls from 0.62 to 0.32.

First: C42A G79U
Second: C45A G99A
The self-cleavage of the first is lower: 0.02 for the first, 0.92 for the second.

First: U43C A78U
Second: U43C U49C
The self-cleavage of the first is lower: 0.4 for the first, 1.22 for the second.

First: G41C A66U
Second: U43C A92G
The self-cleavage of the first is higher: 1.25 for the first, 1.24 for the second.

Going from U43C G74C to U43A A89U, the self-cleavage rises from 0.23 to 1.74.

First: U43C A111G
Second: G44A C77U
The self-cleavage of the first is lower: 0.02 for the first, 2.17 for the second.

First: U43C U139A
Second: G41C U122A
The self-cleavage of the first is lower: 1.3 for the first, 1.57 for the second.

Compared with C45A U127C, U43C A89C is higher in self-cleavage: 0.26 for the first, 1.36 for the second.

Compared with G41C U43C, U43C U130C is lower in self-cleavage: 2.19 for the first, 0.47 for the second.

First: U43A A90U
Second: U43A A90G
The self-cleavage of the first is higher: 1.74 for the first, 0.76 for the second.

Compared with C40A A69G, U43A A86U is higher in self-cleavage: 1.65 for the first, 1.7 for the second.

First: U43A A126U
Second: U43A A126G
The self-cleavage of the first is higher: 1.41 for the first, 1.25 for the second.

First: G41A A114G
Second: G44C A117G
The self-cleavage of the first is lower: 0.75 for the first, 1.69 for the second.

Going from U43G A125G to U43A U127C, the self-cleavage falls from 1.11 to 1.07.

For G41A U133C, the self-cleavage was 1.98.

From the RNAGym collection of RNA variant scans (doi:10.7554/elife.90254)
